Measured values published in patent publication US20210102195A1 (TWIST BIOSCIENCE, published 2021).
Blank lines part the entries; values can stand above or below the binder they belong to.

Columns and labels:
CRTH2R [1] = target: T1, CRTH2R (UniProt Q9Y5Y4 1-395, limits assumed); assay: flow cytometry (MFI), titration 0.05-100 nM on CRTH2R cells against parent cells; no legend on the panel: grey curve and grey EC50 taken as the CRTH2R cells, black (ND) as the parent cells
T1 construct: whole, on cells; also called Prostaglandin D2 receptor 2 (DP2 or CRTH2) receptor
T1 sequence (looked up): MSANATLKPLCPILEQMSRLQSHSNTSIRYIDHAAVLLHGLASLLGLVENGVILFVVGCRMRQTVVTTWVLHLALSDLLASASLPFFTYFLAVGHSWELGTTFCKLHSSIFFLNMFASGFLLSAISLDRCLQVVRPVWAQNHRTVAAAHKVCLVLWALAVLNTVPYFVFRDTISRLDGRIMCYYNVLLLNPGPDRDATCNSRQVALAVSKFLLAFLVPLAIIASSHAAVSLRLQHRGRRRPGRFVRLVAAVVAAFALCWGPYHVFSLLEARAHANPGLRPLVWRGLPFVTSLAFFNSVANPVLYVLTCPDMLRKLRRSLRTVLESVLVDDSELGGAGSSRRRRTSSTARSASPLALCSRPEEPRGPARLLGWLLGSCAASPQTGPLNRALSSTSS

CRTH2R [2] = target: T1, CRTH2R; assay: cell-based or functional assay
human CD3 epsilon = target: T2, human CD3 epsilon (human, UniProt P07766 23-126, limits assumed); assay: affinity of IgG; method not stated; human CD3 epsilon
T2 construct: also called hCD3; hCD3 epsilon
T2 sequence (P07766 23-126 limits assumed): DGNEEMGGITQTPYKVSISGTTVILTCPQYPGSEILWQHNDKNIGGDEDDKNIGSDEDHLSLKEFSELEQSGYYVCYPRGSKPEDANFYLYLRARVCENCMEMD

CRTH2R [3] = target: T1, CRTH2R; assay: cell-based or functional assay; remark: listed apart in the source
CRTH2R [4] = target: T1, CRTH2R; assay: flow cytometry (MFI), CHO CRTH2R-positive cells against parental CHO cells, 3-fold titration from 100 nM; grey = CRTH2R cells, black = parental cells (no legend on the panel)
Experimental: (§1) Cell binding of anti-CRTH2R antibodies was determined by testing on CHO CRTH2R-positive cells (GFP+) and parental CHO cells (GFP−), comparing parental negative and target positive cells to rule out false-positives. Antibodies as listed in Table 14A were titrated starting at 100 nM (15 ug/mL) with 3-fold titrations, for a total of 8 points. Two antibodies (gPCR-51 and gPCR-52) were used as a positive control.

CRTH2R [5] = target: T1, CRTH2R; assay: flow cytometry (MFI), CHO CRTH2R-positive cells against parental CHO cells; same panel as in FIG. 15C; grey = CRTH2R cells, black = parental cells (no legend on the panel)
Experimental: as §1

CRTH2R [6] = target: T1, CRTH2R; assay: flow cytometry (MFI), CHO CRTH2R-positive cells against parental CHO cells; same panel as in FIG. 15E; grey = CRTH2R cells, black = parental cells (no legend on the panel)
Experimental: as §1

EC50 (CRTH2R [1]): 0.181 nM | IC50 fold diff. of the PGD2 dose response in the CRTH2 DiscoverX allosteric cAMP assay (+ CRTH2-41-51-VHH against + no Ab) (CRTH2R [2]): 2.18 fold
B1: CRTH2-41-51 (Fc fusion, not shown: a dimerising Fc or GST)
chain: EVQLVESGGGLVQPGGSLRLSCAASGGIFRFNAMGWFRQAPGKERELVAGISGSGGDTYYADSVKGRFTISADNSKNTAYLQMNSLKPEDTAVYYCAAFRGIMRPDWGQGTLVTVSS

Kd (human CD3 epsilon): 67 nM
B2: CD3-56-05 (antibody, V domains shown)
VH: EVQLLESGGGLVQPGGSLRLSCAASGFTFSSYAMNWVRQAPGKGLEWVSAVSGSGGRTYYADSVKGRFTISRDNSKNTLYLQMNSLRAEDTAVYYCARERATTLDYWGQGTLVTVSS
VL: DIQMTQSPSSLSASVGDRVTITCRASQTIYSHLNWYQQKPGKAPKLLIYVASRLQSGVPSRFSGSGSGTDFTLTISSLQPEDFATYYCQQSFSTSWTFGGGTKVEIK
notes: IgG; also called CD3-56-5

IC50 fold difference of the PGD2 dose response (cAMP) with 100 nM IgG (CRTH2R [3]): > 2 fold | EC50 (CRTH2R [4]): 12.4 nM | EC50 (CRTH2R [5]): 12.4 nM
B3: CRTH2-32 (antibody, V domains shown)
VH: QVQLVESGGGVVQPGRSLRLSCAASGFTFSKHGMHWVRQAPGKGLEWVAFISYEGSEKYYADSVKGRFTISRDNSKNTLYLQMNSLRAEDTAVYYCARDMYYDFHYSTVGATYYYYLGSETEVVPADDAFDIWGQGTLVTVSS
VL: QSALTQPASVSGSPGQSITISCTGTSSGVGGYDYVSWYQQHPGKAPKLMIYDDNNRPSGVSNRFSGSKSGNTASLTISGLQAEDEADYYCSSYTGSSTLYVFGGGTKLTVL
notes: CRTH2R IgG

IC50 fold difference of the PGD2 dose response (cAMP) with 100 nM IgG (CRTH2R [3]): > 2 fold | EC50 (CRTH2R [6]): 19.6 nM | EC50 (CRTH2R [4]): 19.6 nM
B4: CRTH2-50 (antibody, V domains shown)
VH: QVQLVQSGAEVKKPGSSVKVSCKASGGTFSSYALSWVRKAPGQGLEWMGGTIPIFGTVNYAQKFQGRVTITADESTSTAYMELSSLRSEDTAVYYCARANQHFTRVIGQPSPAVPSRGYIYHGYHYYGMDVWGQGTLVTVSS
VL: QSALTQPASVSGSPGQSITISCTGTSSDIGGYNFVSWYQQHPGKAPKLMIYDVSNRPQGVSNRFSGSKSGNTASLTISGLQAEDEADYYCSSYTSSNTYVVFGGGTKLTVL
notes: CRTH2R IgG
